Where a chain is given by its changes, count along the chain named.
B1: huAb13v1-AAD (antibody, human IgG1, kappa, L234A L235A, V domains shown)
VH: EVQLQESGPGLVKPSETLSLTCAVTGYSITSGYSWHWIRQFPGNGLEWMGYIHSSGSTNYNPSLKSRISISRDTSKNQFFLKLSSVTAADTAVYYCAGYDDYFEYWGQGTTVTVSS
VL: DIQMTQSPSSLSASVGDRVTITCKASQNVGFNVAWYQQKPGKSPKALIYSASYRYSGVPSRFSGSGSGTDFTLTISSLQPEDFAEYFCQQYNWYPFTFGQGTKLEIKR
modifications: synthon AAD on reduced interchain Cys
B2: huAb13v1-LB (antibody, human IgG1, kappa, L234A L235A, V domains shown)
VH: B1 VH
VL: B1 VL
modifications: synthon LB on reduced interchain Cys
B3: huAb13v1-WD (antibody, human IgG1, kappa, L234A L235A, V domains shown)
VH: B1 VH
VL: B1 VL
modifications: synthon WD on reduced interchain Cys
B4: huAb13v1-ZT (antibody, human IgG1, kappa, L234A L235A, V domains shown)
VH: B1 VH
VL: B1 VL
modifications: synthon ZT on reduced interchain Cys
B5: huAb13v1-ZZ (antibody, human IgG1, kappa, L234A L235A, V domains shown)
VH: B1 VH
VL: B1 VL
modifications: synthon ZZ on reduced interchain Cys
B6: huAb3v2.6-YG (antibody, human IgG1, kappa, L234A L235A, V domains shown)
VH: EVQLVQSGAEVKKPGSSVKVSCKASGYTFSSYWMHWVRQAPGQGLEWIGLIHPESGSTNYNEMFKNRATLTVDRSTSTAYMELSSLRSEDTAVYYCAGGGRLYFDYWGQGTTVTVSS
VL: DIVMTQSPLSLPVTPGEPASISCRSSQSLVHSNQDTYLRWYLQKPGQSPQLLIYKVSNRFSGVPDRFSGSGSGTDFTLKISRVEAEDVGVYYCSQSTHVPYTFGGGTKVEIKR
modifications: synthon YG on reduced interchain Cys
B7: huAb3v2.6-KZ (antibody, human IgG1, kappa, L234A L235A, V domains shown)
VH: B6 VH
VL: B6 VL
modifications: synthon KZ on reduced interchain Cys
B8: Ab12 (antibody, mouse IgG1, V domains shown)
VH: EVQLVESGGGLVKPGGSLKLSCAASGFTFSSYAMSWVRQTPEKRLEWVATISSGTNYTYYPDSVKGRFTISRDNAKNTLYLQMTSLRSEDTAMYYCARQGRYSWIAYWGQGTLVTVSA
VL: DIVLTQSPASLAVSLGQRATISCRASKSVSTSDYSYMHWNQQKPGQPPKLLIYLASNLESGVPARFSGSGSGTDFTLNIHPVEEEDAATYYCQHSRELLTFGAGTKLELK
notes: mouse IgG1/k
B9: Ab18 (antibody, mouse IgG1, V domains shown)
VH: QVQLQQSAAELARPGASVKMSCKASGYSFTSYTIHWVKQRPGQGLEWIGYINPNSRNTDYNQKFKDETTLTADRSSSTAYMQLISLTSEDSAVYYCARYSGSTPYWYFDVWGAGTTVTVSS
VL: QIVLTQSPAILSASPGEKVTMTCRASSSVSYMNWYQQKPGSSPKPWIYATSNLASGVPARFSVSVSGTSHSLTISRVEAEDAATYYCQQWSSNPLTFGAGTKLELK
notes: mouse IgG1/k
B10: Ab4 (antibody, mouse IgG2b, V domains shown)
VH: QVQLQQPGAELVKPGASVKLSCKASGYSFTSYWMHWVKQRPGQGLEWIGMIHPNSGSNNYNEKFKSKATLTVDKSSNTAYMQLSSLTSEDSAVYYCARRLGLHFDYWGQGTTLTVSS
VL: DIVMTQSQKFMSTPVGDRVSITCKASQNVGTAVAWYQQKPGQSPKLLIYSASNRYTGVPDRFTGSGSGTDFTLTISNMQSEDLADYFCQQYSSYPYTFGGGTKLEIK
notes: mouse IgG2b/k
B11: Ab10 (antibody, V domains shown)
VH: DVQLQESGPGLVKPSQSLSLTCTVTGYSITSDYAWNWIRQFPGNRLEWMGHINYSGITNYNPSLKSRISITRDTSKNQFFLQLYSVTTEDTATYFCARRSLFYYYGSSLYAMDYWGQGTSVTVSS
VL: DVVMTQSPFSLPVSLGDQASISCRSSQSLVHSNGNTYLHWYLQKPGQSPKLLIYKVSNRFSGVPDRFSGSGSGTDFTLKISRVEAEDLGVYFCSQSTHVPWTFGGGTKLEIK
notes: mouse IgG2b/k
B12: Ab9 (antibody, V domains shown)
VH: QVQLQQSGAEVKKPGSSVKVSCKASGGTFSSYAISWVRQAPGQGLEWMGGIIPILGIANYAQKFQGRVTITADESTSTAYMELSSLRSEDTAVYYCARGGSGSYHMDVWGKGTTVTVSS
VL: EIVLTQSPATLSLSPGERATLSCRASQSVSSYLAWYQQKPGQAPRLLIYDASNRATGIPARFSGSGSGTDFTLTISSLEPEDFAVYYCQQRSNWPPRITFGQGTRLEIKR
B13: Ab8 (antibody, mouse IgG1, V domains shown)
VH: EVKLVESGGGLVKPGGSLKLSCAASGFTFSSYGMSWVRQTPEKRLEWVATISGGGNYTYCPDSVKGRFTISRDNAKNNLYLQMSSLRSEDTALYYCTRQRGYDYHYAMDFWGQGTSVTVSS
VL: DIQMTQSPASLSVSVGETVTITCRASENIYSNLAWHQQKQGKSPQLLVYAATNLADGVPSRFSGNGSDTQYSLKINSLQSEDFGSYFCQNFWGTSWTFGGGTKLEIK
notes: mouse IgG1/k
B14: Ab7 (antibody, mouse IgG1, V domains shown)
VH: EVQLVESGENLVKPGGSLKLSCAASGFSFRGYGMSWVRQTPDKRLEWVAAISTGGNYTYYPDSVQGRFTISRDNANNTLYLQMSSLKSEDTAMYYCARRGGNYAGFAYWGQGTLVTVSA
VL: B13 VL with A25P, H36Y, N65S, D68G, S85T, F87Y, N90H, S95P, W96F, G100S
notes: mouse IgG1/k

Biological target: T1, Human full length B7-H3 (human, UniProt Q5ZPR3 29-534)
T1 sequence: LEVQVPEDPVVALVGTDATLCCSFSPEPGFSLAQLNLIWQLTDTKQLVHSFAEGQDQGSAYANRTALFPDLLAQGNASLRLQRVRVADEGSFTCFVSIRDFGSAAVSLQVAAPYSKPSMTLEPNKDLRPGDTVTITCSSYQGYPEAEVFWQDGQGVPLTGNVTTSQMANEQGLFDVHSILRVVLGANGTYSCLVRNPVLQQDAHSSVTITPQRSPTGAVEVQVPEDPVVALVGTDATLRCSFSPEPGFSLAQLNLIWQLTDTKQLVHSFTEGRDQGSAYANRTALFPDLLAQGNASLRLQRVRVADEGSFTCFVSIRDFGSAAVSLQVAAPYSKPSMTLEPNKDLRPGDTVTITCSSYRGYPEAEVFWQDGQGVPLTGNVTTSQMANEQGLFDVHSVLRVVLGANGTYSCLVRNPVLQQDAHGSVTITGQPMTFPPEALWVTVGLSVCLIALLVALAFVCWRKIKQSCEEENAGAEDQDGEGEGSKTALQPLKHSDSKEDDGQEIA
Test: cell-based or functional assay

Going from B1 to B2, the “EC50 nM H1650 (tumor cell cytotoxicity)” value rises from 0.21 nM to > 133 nM.

Compared with B3, B4 is 1.5-fold lower in “EC50 nM H1650 (tumor cell cytotoxicity)” value: 0.45 nM for the first, 0.3 nM for the second.

Going from B5 to B6, the “EC50 nM H1650 (tumor cell cytotoxicity)” value rises from 0.42 nM to 0.68 nM (1.6-fold).

In the case of B7, the “EC50 nM H1650 (tumor cell cytotoxicity)” value is reported as 5.52 nM.

Biological target: T1, Human full length B7-H3
Test: FACS, 3T12 transfectants
Procedure: (§1) A selection of hits were subcloned using the MoFlo (Beckman, Indianapolis, Ind., US) by depositing a single cell per well into 96 well cell culture plates to ensure clonality of the cell line. Resulting colonies were screened for specificity by FACS using mouse 3T12 fibroblast cell lines expressing the human B7-H3, cynomolgous B7-H3 or mouse B7-H3. Isotype of each monoclonal antibody was determined using the Mouse Monoclonal Isostyping Kit (Roche, No. 11-493-027-001, Indianapolis, Ind., USA).

Going from B8 to B9, the EC50 rises from 3.88 nM to 5.98 nM (1.5-fold).

B10 and B11 are within 1.5-fold of each other in EC50: 4.06 nM for the first, 3.97 nM for the second.

B12 and B13 are within 1.5-fold of each other in EC50: 4.49 nM for the first, 3.83 nM for the second.

With B14 the EC50 was 3.22 nM.

Biological target: T2, Cynomolgous B7-H3 on cells (cynomolgus)
T2 construct: whole, on cells; also called cyB7-H3; cyno B7-H3
Test: FACS, 3T12 transfectants
Procedure: as §1

B8 and B9 are within 1.5-fold of each other in EC50: 6.71 nM for the first, 6.49 nM for the second.

B10 and B11 are within 1.5-fold of each other in EC50: 3.1 nM for the first, 4.46 nM for the second.

Going from B12 to B13, the EC50 falls from 259 nM to 8.63 nM (30-fold).

For B14, the EC50 was 2.67 nM.

Biological target: T3, Mouse B7-H3 on cells (mouse, UniProt Q8VE98 29-316)
T3 construct: whole, on cells
T3 sequence (looked up): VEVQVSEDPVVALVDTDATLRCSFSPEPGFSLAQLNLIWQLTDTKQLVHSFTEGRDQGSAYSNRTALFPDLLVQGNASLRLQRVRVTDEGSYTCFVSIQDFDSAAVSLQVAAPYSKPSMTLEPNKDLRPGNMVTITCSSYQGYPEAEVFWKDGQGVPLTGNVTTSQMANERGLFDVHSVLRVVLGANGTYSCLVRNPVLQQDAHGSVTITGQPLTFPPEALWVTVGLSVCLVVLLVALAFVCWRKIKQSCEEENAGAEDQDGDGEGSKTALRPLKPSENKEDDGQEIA
Test: FACS, 3T12 transfectants
Procedure: as §1

Compared with B8, B10 is 5-fold lower in EC50: 8.72 nM for the first, 1.75 nM for the second. The second is the more potent here.

Compared with B11, B12 is 5.3-fold lower in EC50: 3.8 nM for the first, 0.72 nM for the second.

First: B13
Second: B14
The EC50 of the first is 2.9-fold higher: 193 nM for the first, 67.1 nM for the second. The second is the more potent here.

B9: no binding.

Biological target: T4, Human B7-H3-ECD (His tag) (human, UniProt Q5ZPR3 29-461)
T4 construct: SPR analyte; also called huB7-H3; soluble ECD of human B7-H3
T4 sequence: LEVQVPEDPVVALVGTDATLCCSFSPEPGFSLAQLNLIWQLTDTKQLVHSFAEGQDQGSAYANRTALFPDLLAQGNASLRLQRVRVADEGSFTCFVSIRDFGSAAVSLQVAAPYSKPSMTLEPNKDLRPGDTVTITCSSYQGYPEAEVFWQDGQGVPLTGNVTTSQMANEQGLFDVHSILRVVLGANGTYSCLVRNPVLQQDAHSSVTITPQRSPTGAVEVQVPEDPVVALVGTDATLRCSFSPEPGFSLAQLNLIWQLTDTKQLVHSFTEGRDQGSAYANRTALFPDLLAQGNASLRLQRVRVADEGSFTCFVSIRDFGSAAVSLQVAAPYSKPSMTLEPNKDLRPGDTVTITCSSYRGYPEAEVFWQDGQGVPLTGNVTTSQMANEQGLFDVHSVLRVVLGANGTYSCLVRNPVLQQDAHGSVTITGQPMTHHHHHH
Test: SPR, mAb captured, ECD analyte

First: B8
Second: B9
The Kd of the first is 39-fold higher: 6.7 nM for the first, 0.17 nM for the second. The second binds more tightly here.

Going from B10 to B11, the Kd rises from 1.6 nM to 4.6 nM (2.9-fold). The first binds more tightly here.

Compared with B12, B13 is 10-fold lower in Kd: 17 nM for the first, 1.7 nM for the second.

First: B8
Second: B9
The koff of the first is 6.9-fold higher: 0.00025 s⁻¹ for the first, 3.6e-05 s⁻¹ for the second.

Going from B10 to B11, the koff falls from 0.0011 s⁻¹ to 0.00019 s⁻¹ (5.8-fold).

First: B12
Second: B13
The koff of the first is 11-fold higher: 0.0011 s⁻¹ for the first, 9.9e-05 s⁻¹ for the second.

First: B8
Second: B9
The kon of the first is 5.5-fold lower: 38000 M⁻¹ s⁻¹ for the first, 210000 M⁻¹ s⁻¹ for the second.

Compared with B10, B11 is 17-fold lower in kon: 690000 M⁻¹ s⁻¹ for the first, 41000 M⁻¹ s⁻¹ for the second.

B12 and B13 are within 1.5-fold of each other in kon: 66000 M⁻¹ s⁻¹ for the first, 58000 M⁻¹ s⁻¹ for the second.

Biological target: T5, Cyno B7-H3-ECD (his tag) (cynomolgus)
T5 construct: SPR analyte; also called soluble ECD of cyno B7-H3
T5 chain: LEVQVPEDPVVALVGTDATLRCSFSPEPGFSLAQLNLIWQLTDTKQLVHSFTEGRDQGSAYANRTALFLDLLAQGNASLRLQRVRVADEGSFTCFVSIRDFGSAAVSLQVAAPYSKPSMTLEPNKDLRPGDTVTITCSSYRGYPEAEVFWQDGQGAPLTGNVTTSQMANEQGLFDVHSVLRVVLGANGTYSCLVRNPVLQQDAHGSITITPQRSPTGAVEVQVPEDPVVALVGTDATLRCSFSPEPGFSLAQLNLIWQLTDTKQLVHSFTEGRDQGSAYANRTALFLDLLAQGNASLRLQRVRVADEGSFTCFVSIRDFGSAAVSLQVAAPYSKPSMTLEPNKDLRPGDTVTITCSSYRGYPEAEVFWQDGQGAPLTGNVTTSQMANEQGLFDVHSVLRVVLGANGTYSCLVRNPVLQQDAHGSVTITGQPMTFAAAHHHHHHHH
Test: SPR, mAb captured, ECD analyte

B8 and B9 cannot be ordered by Kd: ≤ 0.18 nM for the first, 0.12 nM for the second.

Going from B10 to B11, the Kd rises from 1.8 nM to 20 nM (11-fold). The first binds more tightly here.

B13 was tested, and the Kd was 1.7 nM.

First: B8
Second: B9
The koff of the first is lower: ≤ 1e-05 s⁻¹ for the first, 2.9e-05 s⁻¹ for the second.

Going from B10 to B11, the koff rises from 0.00096 s⁻¹ to 0.0042 s⁻¹ (4.4-fold).

B13 showed a koff of 0.00026 s⁻¹.

Going from B8 to B9, the kon rises from 55000 M⁻¹ s⁻¹ to 240000 M⁻¹ s⁻¹ (4.4-fold).

Going from B10 to B11, the kon falls from 540000 M⁻¹ s⁻¹ to 200000 M⁻¹ s⁻¹ (2.7-fold).

B13 gave a kon of 160000 M⁻¹ s⁻¹.

B14: binds.

From patent US20170355769A1 (AbbVie / Abbott, published 2017)
